Laboratory results from patent publication US6998116 (Genentech, dated 2006).

Target: the molecule itself
Assay: self-association: chemical crosslinking (sulfo-NHS/EDC), SDS-PAGE and silver staining
Procedure: Minor 48 kDa and 66 kDa bands were also observed, and probably represent soluble Apo-2 ligand homodimers and homotrimers. Chemical crosslinking of the purified $His10$-Apo-2 ligand by incubation with sulfo-NHS (5 mM) (Pierce Chemical) and EDC (Pierce Chemical) at 25 mM and 50 mM (FIG. 1D, lanes 1 and 2, respectively), shifted the protein into the 66 kDa band primarily.

B1: His10-Apo-2 ligand (purified soluble Apo-2 ligand residues 114-281 with N-terminal Met Gly His10 tag and enterokinase site) (ligand)
chain: MGHHHHHHHHHHSSGHIDDDDKHMVRERGPQRVAAHITGTRGRSNTLSSPNSKNEKALGRKINSWESSRSGHSFLSNLHLRNGELVIHEKGFYYIYSQTYFRFQEEIKENTKNDKQMVQYIYKYTSYPDPILLMKSARNSCWSKDAEYGLYSIYQGGIFELKENDRIFVSVTNEHLIDMDHEASFFGAFLVG
notes: Made in baculovirus-infected Sf9 cells, purified on Ni2+-NTA; also called His10-Apo-2 ECD
binding result: binds
